Target: AG^(74-173) (A. thaliana) (UniProt P17839)
Assay: SAXS with on-line SEC; Superdex 75 3.2/300 PC on-line at ESRF BM29, 0.1 ml/min, room temperature, 30 mM Tris pH 8.0, 300 mM NaCl, 1 mM TCEP, 5% glycerol; mass from correlated volume and Porod volume; self-association

Chain of AG^(74-173) (P17839 74-173): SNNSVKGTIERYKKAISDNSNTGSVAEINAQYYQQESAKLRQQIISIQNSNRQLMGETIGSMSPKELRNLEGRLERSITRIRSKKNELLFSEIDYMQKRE

stoichiometry N: 2
Substance: AG^(74-173) (from UniProt P17839 74-173) (domain or fragment)
